Drawing on patent US20230331800A1, this text covers potency in inducing STAT5 phosphorylation in CD8+ OT-I T cells, against T5-IL2M6, potency in STAT5 phosphorylation on multiple lymphocyte populations (FIG. 14A-C), against IL2M4 (fold less potent than IL2M4) and potency in STAT5 phosphorylation on multiple lymphocyte populations (FIG. 12A-C), against IL2M0 (fold less potent than IL2M0) for three substances.

For experiment [1], the target named is OT-I TCR (ovalbumin(257-264)-specific T cell receptor of OT-1 TCR transgenic mouse CD8+ T cells) (mouse). Put plainly: cell-based or functional assay. Conditions: scale: orders of magnitude higher potency than T5-IL2M6.
The target of experiment [2] is IL2 receptors on lymphocyte populations of human PBMCs (human) (UniProt P01589). The experiment in a line: cell-based or functional assay.
UniProt P01589, sequence (P01589 22-272, chain 1 of 3): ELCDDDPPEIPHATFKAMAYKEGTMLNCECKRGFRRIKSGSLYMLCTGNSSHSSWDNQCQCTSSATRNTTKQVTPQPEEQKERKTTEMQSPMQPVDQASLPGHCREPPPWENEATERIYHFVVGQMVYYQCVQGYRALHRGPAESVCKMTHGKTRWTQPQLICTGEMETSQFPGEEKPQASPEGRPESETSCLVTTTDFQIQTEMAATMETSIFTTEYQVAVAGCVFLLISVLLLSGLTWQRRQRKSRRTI
UniProt P01589, sequence (P14784 27-551, chain 2 of 3, further chain): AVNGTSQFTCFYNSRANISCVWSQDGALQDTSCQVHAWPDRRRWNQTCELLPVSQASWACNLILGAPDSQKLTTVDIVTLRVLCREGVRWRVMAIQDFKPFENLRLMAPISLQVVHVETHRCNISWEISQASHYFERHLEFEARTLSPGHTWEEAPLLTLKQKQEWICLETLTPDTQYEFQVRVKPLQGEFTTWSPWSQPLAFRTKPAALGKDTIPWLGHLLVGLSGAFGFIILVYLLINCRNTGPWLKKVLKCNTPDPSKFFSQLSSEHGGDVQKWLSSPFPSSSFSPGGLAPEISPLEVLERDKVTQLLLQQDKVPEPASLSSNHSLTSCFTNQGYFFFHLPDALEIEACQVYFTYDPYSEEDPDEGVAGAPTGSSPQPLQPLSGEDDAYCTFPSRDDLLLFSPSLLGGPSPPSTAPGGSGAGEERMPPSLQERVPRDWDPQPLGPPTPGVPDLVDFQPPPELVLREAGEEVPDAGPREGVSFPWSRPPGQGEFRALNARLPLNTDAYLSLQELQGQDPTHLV
UniProt P01589, sequence (P31785 23-369, chain 3 of 3, further chain): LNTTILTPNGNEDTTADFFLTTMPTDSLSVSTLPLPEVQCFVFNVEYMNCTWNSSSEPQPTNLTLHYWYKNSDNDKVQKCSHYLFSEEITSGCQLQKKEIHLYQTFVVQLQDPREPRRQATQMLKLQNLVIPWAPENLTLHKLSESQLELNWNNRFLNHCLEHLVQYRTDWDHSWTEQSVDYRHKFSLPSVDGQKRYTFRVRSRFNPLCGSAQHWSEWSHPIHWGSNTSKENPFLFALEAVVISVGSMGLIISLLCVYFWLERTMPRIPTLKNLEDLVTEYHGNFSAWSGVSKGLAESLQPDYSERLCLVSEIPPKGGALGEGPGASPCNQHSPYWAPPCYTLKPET

In the case of “T4-IL2M6: OVA(257-264)-GCGGS-(GGGGS)2-mB2m-(GGGGS)4-mH2Kb-(GGGGS)4-Fc-(GGGGS)3-hIL2(H16A, F42A) (Fc fusion)”, the potency in inducing STAT5 phosphorylation in CD8+ OT-I T cells, against T5-IL2M6 in experiment [1] came to 2.
“IL2M5: Fc-GGGGS-human IL2 (N88D, C125A) fusion (Fc fusion)” displayed a potency in STAT5 phosphorylation on multiple lymphocyte populations (FIG. 14A-C), against IL2M4 (fold less potent than IL2M4) in experiment [2] of over 100.
Consider “IL2M2: Human IL2-(GGGGS)4-human IL-2Ra-GGGGS-Fc (Fc fusion)”, for which the potency in STAT5 phosphorylation on multiple lymphocyte populations (FIG. 12A-C), against IL2M0 (fold less potent than IL2M0) in experiment [2] is 100.
